Assay results reported in article PMC9909464, “The human MRS2 magnesium-binding domain is a regulatory feedback switch for channel activity” (Life Science Alliance, 2023).

Experiments:
[1] = target: the molecule itself; assay: SEC-MALS; Superdex 200 Increase 10/300 GL, 20 mM Tris, 150 mM NaCl, 1 mM DTT, pH 8.0, ~10°C; no divalent cations; injected at 0.45-5 mg/ml; monomer to dimer
[2] = target: the molecule itself; assay: dynamic light scattering; 0.5 mg/ml in 20 mM Tris, 150 mM NaCl, 1 mM DTT, 10 mM CHAPS, pH 8.0, 37°C; no divalent cations (5 mM MgCl2 or 5 mM CaCl2 gave no change); higher order oligomers

Row | Protein | stoichiometry N [1] | binding result [2]
1 | human MRS2 amino terminal domain, MRS2_(58–333) (domain or fragment, UniProt Q9HD23 58-333, looked up, Cloned into pET-28a by NdeI and XhoI; also called MRS2 NTD; NTD; source: E. coli BL21 (DE3), purified (nickel-NTA, thrombin cleavage, SEC S200); not shown: His6, N-terminal, cleaved) DRLRVAGEVHRFRTSDVSQATLASVAPVFTVTKFDKQGNVTSFERKKTELYQELGLQARDLRFQHVMSITVRNNRIIMRMEYLKAVITPECLLILDYRNLNLEQWLFRELPSQLSGEGQLVTYPLPFEFRAIEALLQYWINTLQGKLSILQPLILETLDALVDPKHSSVDRSKLHILLQNGKSLSELETDIKIFKESILEILDEEELLEELCVSKWSDPQVFEKSSAGIDHAEEMELLLENYYRLADDLSNAARELRVLIDDSQSIIFINLDSHRN | 2 | 
2 | MRS2_(58–333) D216A/D220A (domain or fragment, human, UniProt Q9HD23 58-333, looked up, also called D216A/D220A MRS2 NTD double mutant; not shown: His6, N-terminal, cleaved) DRLRVAGEVHRFRTSDVSQATLASVAPVFTVTKFDKQGNVTSFERKKTELYQELGLQARDLRFQHVMSITVRNNRIIMRMEYLKAVITPECLLILDYRNLNLEQWLFRELPSQLSGEGQLVTYPLPFEFRAIEALLQYWINTLQGKLSILQPLILETLAALVAPKHSSVDRSKLHILLQNGKSLSELETDIKIFKESILEILDEEELLEELCVSKWSDPQVFEKSSAGIDHAEEMELLLENYYRLADDLSNAARELRVLIDDSQSIIFINLDSHRN | 2 | 
3 | full-length human MRS2 excluding the mitochondrial targeting sequence, MRS2_(58–443) (natural protein, UniProt Q9HD23 58-443, looked up, in CHAPS micelles in the assay; also called full-length MRS2; source: E. coli BL21 (DE3), purified as the NTD with 10 mM CHAPS in elution and SEC buffers; not shown: His6, N-terminal, cleaved) DRLRVAGEVHRFRTSDVSQATLASVAPVFTVTKFDKQGNVTSFERKKTELYQELGLQARDLRFQHVMSITVRNNRIIMRMEYLKAVITPECLLILDYRNLNLEQWLFRELPSQLSGEGQLVTYPLPFEFRAIEALLQYWINTLQGKLSILQPLILETLDALVDPKHSSVDRSKLHILLQNGKSLSELETDIKIFKESILEILDEEELLEELCVSKWSDPQVFEKSSAGIDHAEEMELLLENYYRLADDLSNAARELRVLIDDSQSIIFINLDSHRNVMMRLNLQLTMGTFSLSLFGLMGVAFGMNLESSLEEDHRIFWLITGIMFMGSGLIWRRLLSFLGRQLEAPLPPMMASLPKKTLLADRSMELKNSLRLDGLGSGRSILTNR |  | binds
